Tests used:
[1] = biological target: WGMDY1 (WGMDY1 fused to a 10-mer cell-penetrating peptide sequence of HIV tat-1 protein, unphosphorylated form)
[2] = biological target: pWGMDY1 (WGMDY1 fused to a 10-mer cell-penetrating peptide sequence of HIV tat-1 protein, phosphorylated form)

B1: purified glutathione S-transferase (GST) fusion of the phosphatase domain of SHP2 (protein)
chain: GFWEEFETLQQQECKLLYSRKEGQRQENKNKNRYKNILPFDHTRVVLHDGDPNEPVSDYINANIIMPEFETKCNNSKPKKSYIATQGCLQNTVNDFWRMVFQENSRVIVMTTKEVERGKSKCVKYWPDEYALKEYGVMRVRNVKESAAHDYTLRELKLSKVGQGNTERTVWQYHFRTWPDHGVPSDPGGVLDFLEEVHHKQESIMDAGPVVVHCSAGIGRTGTFIVIDILIDIIREKGVDCDIDVPKTIQMVRSQRSGMVQTEAQYRFIYMAVQHYIETLQRRIEEEQKSKRKGHEYTNIKYSLADQTSGDQSPLPPCTPTPPCAEMREDSARVYENVGLMQQQKSFR
B1 was tested. Which “in vitro phosphatase assay: dephosphorylation of para-nitrophenolphosphate (pN) by P, absorbance (OD) at 405 nm at the 5 minutes time point” value [1] did it give?
Its value is “Addition of pWGMDY1, but not WGMDY1, inhibited the dephosphorylation reaction”.

And the “in vitro phosphatase assay: dephosphorylation of para-nitrophenolphosphate (pN) by P, absorbance (OD) at 405 nm at the 5 minutes time point” value [2]?
Its value is “Addition of pWGMDY1, but not WGMDY1, inhibited the dephosphorylation reaction”.
